B1: CPEB3 Ribozyme (parent)
chain: GGGGGCCACAGCAGAAGCGUUCACGUCGCGGCCCCUGUCAGAUUCUGGUGAAUCUGCGAAUUCUGCUGU

Variants of: B1
Experiment: self-cleavage, relative activity (ratio to wild type); higher = more cleavage; co-transcriptional
Work on GGGGGCCACAGGAGAAGCGUUCACGUCGCGGCCCCUGUCAGAUUCUGGUGAAUCGGCGAAUUCUGCUGU [C12G U55G] yielded a self-cleavage of 0.284.
In the case of GGGGGCCACAGGAGAAGCGUUCACGUCGCGGCCCCUGUCAGAUUCUGGUGAAUCAGCGAAUUCUGCUGU [C12G U55A], the self-cleavage is reported as 0.403.
For GGGGGCCACAGGAGAAGCGUUCACGUCGCGGCCCCUGUCAGAUUCUGGUGAAUCCGCGAAUUCUGCUGU [C12G U55C], the self-cleavage was 0.558.
GGGGGCCACAGGAGAAGCGUUCACGUCGCGGCCCCUGUCAAAUUCUGGUGAAUCUGCGAAUUCUGCUGU [C12G G41A] showed a self-cleavage of 0.353.
For GGGGGCCACAGGAGAAGCGUUCACGUCGCGGCCCCUGUCAGAUUCCGGUGAAUCUGCGAAUUCUGCUGU [C12G U46C], the self-cleavage was 0.832.
With GGGGGCCACAGGAGAAGCGUUCACGUCGCGGCCCCUGUCAGAUUCGGGUGAAUCUGCGAAUUCUGCUGU [C12G U46G] the self-cleavage was 0.862.
In the case of GGGGGCCACAGGAGAAGCGUUCACGUCGCGGCCCCUGUCAGAUUCAGGUGAAUCUGCGAAUUCUGCUGU [C12G U46A], the self-cleavage is reported as 0.91.
With GGGGGCCACAGGAGAAGCGUUCACGUCGCGGCCCCUGUCAGAUUCUGGUGAAUCUGCGAAUUCUGCAGU [C12G U67A] the self-cleavage was 0.8.
GGGGGCCACAGGAGAAGCGUUCACGUCGCGGCCCCUGUCAGAUUCUGGUGAAUCUGCGAAUUCUGCGGU [C12G U67G] gave a self-cleavage of 0.797.
Variant GGGGGCCACAGGAGAAGCGUUCACGUCGCGGCCCCUGACAGAUUCUGGUGAAUCUGCGAAUUCUGCUGU [C12G U38A] has a self-cleavage of 0.739.
GGGGGCCACAGGAGAAGCGUUCACGUCGCGGCCCCUGGCAGAUUCUGGUGAAUCUGCGAAUUCUGCUGU [C12G U38G] showed a self-cleavage of 0.126.
GGGGGCCACAGGAGAAGCGUUCACGUCGCGGCCCCUGUCAGAUUCUGGUGAAUCUCCGAAUUCUGCUGU [C12G G56C] showed a self-cleavage of 0.345.
In the case of GGGGGCCACAGGAGAAGCGUUCACGUCGCGGCCCCUGUCAGAUUCUGGUGAAUCUGCGAAAUCUGCUGU [C12G U61A], the self-cleavage is reported as 0.537.
In the case of GGGGGCCACAGGAGAAGCGUUCACGUCGCGGCCCCUGUCAGAUUCUGGUGAAUCUGCGAAGUCUGCUGU [C12G U61G], the self-cleavage is reported as 0.592.
For GGGGGCCACAGUAGAAGCGUUCACGUCGCGGCCCCUGUCAGAUUCUGGUGAGUCUGCGAAUUCUGCUGU [C12U A52G], the self-cleavage was 1.01.
Work on GGGGGCCACAGUAGAAGCGUUCACGUCGCGGCCCCUGUCAGAUUCUGGUGACUCUGCGAAUUCUGCUGU [C12U A52C] yielded a self-cleavage of 0.903.
GGGGGCCACAGUAGAAGCGUUCACGUCGCGGCCCCUGUCAGAUUCUGGUGGAUCUGCGAAUUCUGCUGU [C12U A51G] gave a self-cleavage of 0.996.
Work on GGGGGCCACAGUAGAAGCGUUCACGUCGCGGCCCCUGUCAGAUUCUGGUGUAUCUGCGAAUUCUGCUGU [C12U A51U] yielded a self-cleavage of 0.991.
In the case of GGGGGCCACAGGAGAAGCGUUCACGUCGCGGCCCCUGUCAGAAUCUGGUGAAUCUGCGAAUUCUGCUGU [C12G U43A], the self-cleavage is reported as 0.519.
With GGGGGCCACAGGAGAAGCGUUCACGUCGCGGCCCCUGUCAGACUCUGGUGAAUCUGCGAAUUCUGCUGU [C12G U43C] the self-cleavage was 0.706.
With GGGGGCCACAGGAGAAGCGUUCACGUCGCGGCCCCUGUCAGAUUCUGGGGAAUCUGCGAAUUCUGCUGU [C12G U49G] the self-cleavage was 0.857.
In the case of GGGGGCCACAGUAGAAGCGUUUACGUCGCGGCCCCUGUCAGAUUCUGGUGAAUCUGCGAAUUCUGCUGU [C12U C22U], the self-cleavage is reported as 0.16.
For GGGGGCCACAGUAGAAGCGUUGACGUCGCGGCCCCUGUCAGAUUCUGGUGAAUCUGCGAAUUCUGCUGU [C12U C22G], the self-cleavage was 0.248.
Variant GGGGGCCACAGUAGAUGCGUUCACGUCGCGGCCCCUGUCAGAUUCUGGUGAAUCUGCGAAUUCUGCUGU [C12U A16U] has a self-cleavage of 0.655.
In the case of GGGGGCCACAGUAGACGCGUUCACGUCGCGGCCCCUGUCAGAUUCUGGUGAAUCUGCGAAUUCUGCUGU [C12U A16C], the self-cleavage is reported as 0.134.
With GGGGGCCACAGUAGAGGCGUUCACGUCGCGGCCCCUGUCAGAUUCUGGUGAAUCUGCGAAUUCUGCUGU [C12U A16G] the self-cleavage was 0.814.
Work on GGGGGCCACAGGAGAAGCGUUCACGUCGCGGCCCCUGUCAGAUUCUGGUGAAUCUGCGAAUUCUGCUUU [C12G G68U] yielded a self-cleavage of 0.917.
GGGGGCCACAGGAGAAGCGGUCACGUCGCGGCCCCUGUCAGAUUCUGGUGAAUCUGCGAAUUCUGCUGU [C12G U20G] showed a self-cleavage of 0.125.
In the case of GGGGGCCACAGGAGAAGCGAUCACGUCGCGGCCCCUGUCAGAUUCUGGUGAAUCUGCGAAUUCUGCUGU [C12G U20A], the self-cleavage is reported as 0.228.
With GGGGGCCACAGGAGAAGCGUUCACGUCGCGGCCCCUGUCAGAUUCUGGUGAAUCUGCGAAUGCUGCUGU [C12G U62G] the self-cleavage was 0.338.
For GGGGGCCACAGGAGAAGCGUUCACGCCGCGGCCCCUGUCAGAUUCUGGUGAAUCUGCGAAUUCUGCUGU [C12G U26C], the self-cleavage was 0.74.
In the case of GGGGGCCACAGGAGAAGCGUUCACGACGCGGCCCCUGUCAGAUUCUGGUGAAUCUGCGAAUUCUGCUGU [C12G U26A], the self-cleavage is reported as 0.695.
GGGGGCCACAGGAGAAGCGUUCACGGCGCGGCCCCUGUCAGAUUCUGGUGAAUCUGCGAAUUCUGCUGU [C12G U26G] gave a self-cleavage of 0.729.
Work on GGGGGCCACAGGAGAAGCGUUCACGUCGCGGCCCCUGUCAGAUUCUGGUUAAUCUGCGAAUUCUGCUGU [C12G G50U] yielded a self-cleavage of 0.84.
For GGGGGCCACAGGAGAAGCGUUCACGUCGCGGCCCCUGUCAGAUUCUGGUAAAUCUGCGAAUUCUGCUGU [C12G G50A], the self-cleavage was 0.917.
For GGGGGCCACAGGAGAAGCGUUCACGUCGCGGCCCCUGUCAGAUUCUGGUCAAUCUGCGAAUUCUGCUGU [C12G G50C], the self-cleavage was 0.75.
For GGGGGCCACAGGAGAAGCGUUCACGUCGCGGCCCCGGUCAGAUUCUGGUGAAUCUGCGAAUUCUGCUGU [C12G U36G], the self-cleavage was 0.294.
In the case of GGGGGCCACAGGAGAAGCGUUCACGUCGCGGCCCCAGUCAGAUUCUGGUGAAUCUGCGAAUUCUGCUGU [C12G U36A], the self-cleavage is reported as 0.228.
GGGGGCCACAGUAGGAGCGUUCACGUCGCGGCCCCUGUCAGAUUCUGGUGAAUCUGCGAAUUCUGCUGU [C12U A15G] showed a self-cleavage of 0.999.
